{"source": "patent US11833215B2", "about": "“CKIT antibody drug conjugates” (Novartis AG, priority 2014, dated 2023)", "molecules": {"B1": {"name": "NEG085: anti-cKIT antibody of Table 3, VH SEQ ID NO 82, VL SEQ ID NO 91 (antibody, listed as Homo sapiens, V domains shown)", "VH": "EVQLVESGGGLVQPGGSLRLSCAASGFAFSGYYMAWVRQAPGKGLEWVANINYPGSSTYYLDSVKGRFTISRDNAKNSLYLQMNSLRAEDTAVYYCARGDYYGTTYWYFDVWGQGTTVTVSS", "VL": "DIQMTQSPSSLSASVGDRVTITCRASQSISSYLNWYQQKPGKAPKLLIYYTSRLQSGVPSRFSGSGSGTDFTLTISSLQPEDFATYYCQQGRRLWSFGGGTKVEIK"}}, "key": {"Human cKIT D1-D3 ECD": {"molecular_target": "T1, Human cKIT D1-D3 ECD (Homo sapiens, UniProt P10721, N130S/N145S)", "T1 construct": "protein was made with residues Q26-G311; made in house", "T1 sequence (P10721 26-311 N130S/N145S limits assumed)": "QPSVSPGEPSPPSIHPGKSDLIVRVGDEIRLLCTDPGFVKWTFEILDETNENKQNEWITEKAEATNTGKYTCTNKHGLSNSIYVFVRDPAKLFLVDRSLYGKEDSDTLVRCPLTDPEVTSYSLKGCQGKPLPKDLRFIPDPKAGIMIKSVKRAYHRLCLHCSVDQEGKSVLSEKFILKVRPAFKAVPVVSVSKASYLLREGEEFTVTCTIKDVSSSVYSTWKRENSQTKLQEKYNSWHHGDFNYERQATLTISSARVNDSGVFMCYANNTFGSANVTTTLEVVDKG", "test": "crystal structure of cKIT ECD/NEG085 Fab complex", "method": "Human cKIT (accession code NM_000222 domain 1 (D1)-domain 3 (D3) extracellular domain (ECD) protein was made with residues Q26-G311 ([…], N145S- these changes results in glycosylation deficiency, in order to express the protein in a glycan free form). Equal molar ratios of human cKIT D1-D3 ECD and NEG085 Fab were mixed and subjected to a final gel filtration step equilibrated with 20 mM Tris-HCl pH 7.5 and 100 mM NaCl, and concentrated to 20 mg/ml. Trypsin was added to the protein complex crystallization sample to create a 1:100 w/w dilution. The protease/sample mixture was incubated at room temperature for 30 minutes before setting up the crystallization experiment.\nDiffracting crystals of the cKIT ECD/NEG085 Fab complex were obtained directly from Protein Complex Suite F5 (0.1M NaCl, 0.1M Tris pH 8.0, 8% PEG 20 k; Qiagen) at 4° C. and, after minor optimization, led to crystals diffracting to 5 Å in-house. […]\nData were collected on a single crystal cooled to 100K using an ADSC QUANTUM 315 detector (ADSC, Poway CA) and synchrotron radiation (λ=1.0000 Å) at the beam line 5.0.2 of the Advanced Light Source. […] The crystal contains four copies of the cKIT ECD/NEG085 Fab complex in the asymmetric unit with a calculated solvent content of 66%. […]"}, "[1]": {"system": "surface cKIT on GIST-T1 cells", "test": "cKIT Ab-mediated internalization by flow cytometry", "format": "cell-based", "details": "10 μg/ml, 37° C., 30 min to 24 hr", "method": "The kinetics of cKIT antibody mediated internalization was evaluated by treating with antibody in a cell monolayer using a temperature shift method and flow cytometry readout. GIST-T1 (kindly provided by Dr. Takahiro Taguchi, Kochi U., Japan) cells were seeded at 2.5×10E5 cells/well in five 12-well tissue culture treated plates (BD Falcon 353043). The cells were incubated in a tissue culture incubator at 37° C. with 5% CO2 overnight. The following day medium was removed and replaced with 450 μl fresh medium. The cKIT antibodies NEG085, 20376 and an isotype control were prepared at 10×10 μg/ml concentration in appropriate cell culture medium and 50 μl of test cKIT antibody or isotype was added per well with final concentration of 10 μg/ml. All cells were incubated for 1 hr on ice, followed by two washes with 1 mL 1× Phosphate buffered saline (PBS) and resuspended in 500 μl cell culture medium. […] The following day, all samples were analyzed using the BD FACSCanto II 0 equipment using a HTS system (BD Biosciences, San Jose, CA). Samples were analyzed with FlowJo software to obtain the Geometric Mean values of fluorescence for the Phycoerythrin channel, FIG. 4A is a plot of % of initial cell surface binding vs Geometric Mean-PE 4° C. binding/Geometric Mean-PE timepoint at 37° C.×100."}}, "note": "“Also recorded” adds a separate entry of the source."}
{"molecule": "B1", "values": [{"measurement": "competition with SCF for binding to cKIT (superposition of structures)", "setting": "Human cKIT D1-D3 ECD", "value": "appear to not compete"}, {"measurement": "solvent-accessible surface area buried by NEG085/cKIT interface", "setting": "Human cKIT D1-D3 ECD; total, H and L chain", "value": "~1890", "unit": "Å2"}, {"measurement": "internalization of surface cKIT on GIST-T1 cells", "setting": "[1]", "value": "mediate rapid internalization; also recorded: rapidly internalized"}]}
